These results are taken from article PMC7797033, “Single-molecule visualization of human RECQ5 interactions with single-stranded DNA recombination intermediates”.

Data set [1] deals with Human wild-type (wt) RAD51 (human) (UniProt Q06609).
A further data set has as its target RAD51 (human, UniProt Q06609 1-339). Put plainly: BLI; 2 mM ATP, 2 mM Mg2+; 2 uM RAD51; BLI: 25 mM Tris-HCl pH 7.5, 50 mM KCl, 2 mM MgCl2, 200 ug/mL BSA, 0.05% Tween 20, 2 mM ATP, room temperature; curtain buffer not in the material. The conditions noted are these: protein: recombinant; tags: none stated for BLI prep; chain copies: 10; label: 5' biotin. (In general: In BLI a coated tip is dipped into the sample, and binding shifts an interference pattern.)

Sequence of Human wild-type (wt) RAD51 (human) (Q06609 whole entry): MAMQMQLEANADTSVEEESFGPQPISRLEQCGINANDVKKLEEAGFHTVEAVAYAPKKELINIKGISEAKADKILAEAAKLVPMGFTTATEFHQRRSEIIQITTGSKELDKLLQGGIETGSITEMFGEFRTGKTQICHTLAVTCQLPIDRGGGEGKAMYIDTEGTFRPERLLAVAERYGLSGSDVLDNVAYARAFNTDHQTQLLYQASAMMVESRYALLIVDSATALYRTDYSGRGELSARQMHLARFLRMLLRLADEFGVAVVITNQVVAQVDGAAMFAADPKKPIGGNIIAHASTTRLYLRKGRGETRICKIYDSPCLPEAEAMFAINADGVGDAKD
Sequence of RAD51 (Q06609 whole entry): as above

In data set [1], “RECQ5–F666A (from UniProt O94762 1-991) (enzyme)” displayed a processivity of unlabeled RECQ5–F666A on RAD51–ssDNA (ssDNA curtains) of 5200 nt and a translocation velocity of unlabeled RECQ5–F666A on RAD51–ssDNA (ssDNA curtains) of 28 nt/s. In the case of TTTTTTTTTTTTTTTTTTTTTTTTTTTTTTTTTTTTTTTTTTT (ssDNA) [dT43-mer], the binding result with RAD51 was “binds”.
